Test results published in article PMC6677536 (2019).

Molecular target: Full-length Panx, HA-tagged (UniProt Q9W2H9)
Assay: FLAG-tag co-immunoprecipitation, western blot quantification
Conditions: lysates of transfected S2 cells; parent: est. 0; read off a plot

Chain of Full-length Panx, HA-tagged (Q9W2H9 whole entry): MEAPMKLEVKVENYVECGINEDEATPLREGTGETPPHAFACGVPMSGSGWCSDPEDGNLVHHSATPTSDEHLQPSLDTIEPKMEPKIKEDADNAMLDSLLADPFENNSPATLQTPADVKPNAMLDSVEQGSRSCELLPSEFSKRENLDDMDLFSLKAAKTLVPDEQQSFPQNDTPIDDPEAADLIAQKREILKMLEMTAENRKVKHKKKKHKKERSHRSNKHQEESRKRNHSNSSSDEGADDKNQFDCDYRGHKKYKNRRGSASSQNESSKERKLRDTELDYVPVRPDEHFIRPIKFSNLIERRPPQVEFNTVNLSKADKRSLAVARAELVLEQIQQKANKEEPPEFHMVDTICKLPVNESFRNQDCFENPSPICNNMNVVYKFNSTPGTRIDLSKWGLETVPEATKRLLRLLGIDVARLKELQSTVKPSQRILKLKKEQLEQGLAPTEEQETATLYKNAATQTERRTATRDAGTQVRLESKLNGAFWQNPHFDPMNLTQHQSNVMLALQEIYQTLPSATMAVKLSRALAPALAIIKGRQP
Chain of Full-length Nxf2, 3xFLAG-tagged (from UniProt Q9VV73) aa811-814 (UBA mut.1) (Q9VV73 whole entry, change not shown, the tested form may be a part): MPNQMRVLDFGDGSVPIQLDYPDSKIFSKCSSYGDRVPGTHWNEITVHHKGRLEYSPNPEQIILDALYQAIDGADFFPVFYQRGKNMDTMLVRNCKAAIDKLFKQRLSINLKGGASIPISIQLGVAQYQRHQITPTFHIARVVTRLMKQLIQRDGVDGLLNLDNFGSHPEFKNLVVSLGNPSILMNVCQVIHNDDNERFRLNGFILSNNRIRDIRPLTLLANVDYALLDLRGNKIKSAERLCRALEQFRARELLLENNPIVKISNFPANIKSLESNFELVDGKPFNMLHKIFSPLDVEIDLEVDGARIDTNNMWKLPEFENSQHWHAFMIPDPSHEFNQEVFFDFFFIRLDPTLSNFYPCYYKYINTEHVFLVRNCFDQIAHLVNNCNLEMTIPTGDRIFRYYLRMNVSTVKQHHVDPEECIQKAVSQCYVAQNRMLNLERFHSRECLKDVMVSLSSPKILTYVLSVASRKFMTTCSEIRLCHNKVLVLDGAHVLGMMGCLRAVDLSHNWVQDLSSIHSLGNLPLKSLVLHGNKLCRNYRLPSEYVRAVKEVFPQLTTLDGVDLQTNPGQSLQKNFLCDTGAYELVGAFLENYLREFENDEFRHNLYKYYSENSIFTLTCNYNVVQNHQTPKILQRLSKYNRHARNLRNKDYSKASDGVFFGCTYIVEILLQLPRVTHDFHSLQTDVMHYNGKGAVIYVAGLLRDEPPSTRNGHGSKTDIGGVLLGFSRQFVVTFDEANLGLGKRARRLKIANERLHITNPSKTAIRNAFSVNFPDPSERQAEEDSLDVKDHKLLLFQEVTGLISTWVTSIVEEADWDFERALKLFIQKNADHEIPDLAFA
Chain of Full-length Nxf2, 3xFLAG-tagged (from UniProt Q9VV73) aa751-754 (NTF2 mut.1) (Q9VV73 whole entry, change not shown, the tested form may be a part): as above
Chain of Full-length Nxf2, 3xFLAG-tagged (from UniProt Q9VV73) aa755-758 (NTF2 mut.3) (Q9VV73 whole entry, change not shown, the tested form may be a part): as above
Chain of Full-length Nxf2, 3xFLAG-tagged (from UniProt Q9VV73) aa754-756 (NTF2 mut.2) (Q9VV73 whole entry, change not shown, the tested form may be a part): as above
Chain of Full-length Nxf2, 3xFLAG-tagged (from UniProt Q9VV73) aa835-836 (UBA mut.2) (Q9VV73 whole entry, change not shown, the tested form may be a part): as above

log10 ratio (log10 coIP index [arbitrary unit]) | Substance
-0.32 | Full-length Nxf2, 3xFLAG-tagged (from UniProt Q9VV73) aa754-756 (NTF2 mut.2)
-0.5 | Full-length Nxf2, 3xFLAG-tagged (from UniProt Q9VV73) aa835-836 (UBA mut.2)
-0.55 | Full-length Nxf2, 3xFLAG-tagged (from UniProt Q9VV73) aa751-754 (NTF2 mut.1)

The next lines start with the substance.

Substance | log10 ratio (log10 coIP index [arbitrary unit])
Full-length Nxf2, 3xFLAG-tagged (from UniProt Q9VV73) aa811-814 (UBA mut.1) | -1.3
Full-length Nxf2, 3xFLAG-tagged (from UniProt Q9VV73) aa755-758 (NTF2 mut.3) | -0.3
